Paper doi:10.1101/2020.08.10.242008

Molecular target: T1, Full-length wild-type rat TRPV2 (transient receptor potential vanilloid 2) (rat), Q9WUD2
T1 chain: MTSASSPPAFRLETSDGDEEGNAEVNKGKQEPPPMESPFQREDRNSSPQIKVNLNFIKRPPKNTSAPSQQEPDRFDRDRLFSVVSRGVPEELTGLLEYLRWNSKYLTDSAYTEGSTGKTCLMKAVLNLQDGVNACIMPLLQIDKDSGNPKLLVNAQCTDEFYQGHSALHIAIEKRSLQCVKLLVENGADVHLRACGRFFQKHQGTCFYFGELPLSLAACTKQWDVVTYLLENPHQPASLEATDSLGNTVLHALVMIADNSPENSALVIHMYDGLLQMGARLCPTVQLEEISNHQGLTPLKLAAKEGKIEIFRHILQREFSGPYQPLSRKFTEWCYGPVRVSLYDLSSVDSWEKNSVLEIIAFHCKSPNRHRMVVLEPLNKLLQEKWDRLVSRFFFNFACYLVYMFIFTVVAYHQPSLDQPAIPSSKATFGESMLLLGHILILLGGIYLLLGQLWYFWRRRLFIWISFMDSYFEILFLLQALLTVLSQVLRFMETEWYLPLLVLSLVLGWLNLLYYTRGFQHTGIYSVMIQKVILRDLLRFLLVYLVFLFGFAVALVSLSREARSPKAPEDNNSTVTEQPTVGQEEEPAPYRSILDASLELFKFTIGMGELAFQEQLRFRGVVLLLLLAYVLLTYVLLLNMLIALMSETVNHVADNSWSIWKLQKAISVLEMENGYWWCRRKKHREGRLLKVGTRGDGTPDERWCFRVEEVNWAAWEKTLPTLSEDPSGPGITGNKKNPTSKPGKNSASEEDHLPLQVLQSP
Experiment: cryo-EM structure
Conditions: remark: other sources report otherwise

B1: Full-length wild-type rat TRPV2 (transient receptor potential vanilloid 2), Q9WUD2 1-761 (natural protein)
chain: T1 chain
Question: How did the stoichiometry N turn out when B1 was run?
Answer: 4
